Assay results reported in patent US20230142800A1 (COMMISSARIAT A L ENERGIE ATOMIQUE ET AUX ENERGIES …, published 2023).
Where a chain is given by its changes, count along the chain named.

B1: CDRH2 library mutant AAIAWNGGHH (Fab, V domains shown)
VH: EVQLVESGGGLVQPGRSLRLSCAASGFTFDDYAMHWVRQAPGKGLEWVAAIAWNGGHHDYADSVEGRFTISRDNAKNSLYLQMNSLRAEDTAVYYCAKVSYLSTASSLDYWGQGTLVTVSS
VL: not shown
B2: CDRH2 library mutant AAISWNGGHQ (Fab, V domains shown)
VH: B1 VH with A52S, H58Q
VL: not shown
B3: CDRH2 library mutant AAISWNGGHA (Fab, V domains shown)
VH: B1 VH with A52S, H58A
VL: not shown
B4: CDRH3 library mutant LYYCAKVKYTPT (Fab, V domains shown)
VH: B1 VH with A49S, A52T, G55S, H58I, V93L, S100K, L102T, S103P
VL: not shown
B5: CDRH2 library mutant AAINWNSGHR (Fab, V domains shown)
VH: B1 VH with A52N, G55S, H58R
VL: not shown
B6: CDRH2 library mutant AAISWNGGHT (Fab, V domains shown)
VH: B1 VH with A52S, H58T
VL: not shown
B7: CDRH3 library mutant VYYCAKVKYLPP (Fab, V domains shown)
VH: B1 VH with A49S, A52T, G55S, H58I, S100K, S103P, T104P
VL: not shown
B8: CDRH3 library mutant LYYCAKTNYLPT (Fab, V domains shown)
VH: B1 VH with A49S, A52T, G55S, H58I, V93L, V99T, S100N, S103P
VL: not shown
B9: CDRH3 library mutant VYYCAKVTYLPS (Fab, V domains shown)
VH: B1 VH with A49S, A52T, G55S, H58I, S100T, S103P, T104S
VL: not shown
B10: CDRH3 library mutant VYYCAKTKYLPT (Fab, V domains shown)
VH: B1 VH with A49S, A52T, G55S, H58I, V99T, S100K, S103P
VL: not shown
B11: CDRH3 library mutant VYYCAKTHYLPT (Fab, V domains shown)
VH: B1 VH with A49S, A52T, G55S, H58I, V99T, S100H, S103P
VL: not shown
B12: CDRH3 library mutant LYYCAKVKYLPT (Fab, V domains shown)
VH: B1 VH with A49S, A52T, G55S, H58I, V93L, S100K, S103P
VL: not shown
B13: CDRH3 library mutant VYYCAKTTYLPS (Fab, V domains shown)
VH: B1 VH with A49S, A52T, G55S, H58I, V99T, S100T, S103P, T104S
VL: not shown
B14: CDRH3 library mutant VYYCAKAHHLPT (Fab, V domains shown)
VH: B1 VH with A49S, A52T, G55S, H58I, V99A, S100H, Y101H, S103P
VL: not shown
B15: CDRH3 library mutant LYYCAKTTYLPS (Fab, V domains shown)
VH: B1 VH with A49S, A52T, G55S, H58I, V93L, V99T, S100T, S103P, T104S
VL: not shown
B16: CDRH3 library mutant VYYCAKVTYTPS (Fab, V domains shown)
VH: B1 VH with A49S, A52T, G55S, H58I, S100T, L102T, S103P, T104S
VL: not shown
B17: CDRH3 library mutant LYYCAKTTYLPT (Fab, V domains shown)
VH: B1 VH with A49S, A52T, G55S, H58I, V93L, V99T, S100T, S103P
VL: not shown
B18: CDRH2 library mutant AAIAWNGGHR (Fab, V domains shown)
VH: B1 VH with H58R
VL: not shown
B19: CDRH2 library mutant AAINWNGGHH (Fab, V domains shown)
VH: B1 VH with A52N
VL: not shown
B20: CDRH3 library mutant VYYCAKVKYLPA (Fab, V domains shown)
VH: B1 VH with A49S, A52T, G55S, H58I, S100K, S103P, T104A
VL: not shown
B21: CDRH3 library mutant LYYCAKTRYLPT (Fab, V domains shown)
VH: B1 VH with A49S, A52T, G55S, H58I, V93L, V99T, S100R, S103P
VL: not shown
B22: CDRH3 library mutant VYYCAKTNYLPT (Fab, V domains shown)
VH: B1 VH with A49S, A52T, G55S, H58I, V99T, S100N, S103P
VL: not shown
B23: CDRH2 library mutant AAISWNGGHR (Fab, V domains shown)
VH: B1 VH with A52S, H58R
VL: not shown
B24: CDRH2 library mutant AAINWNSGHQ (Fab, V domains shown)
VH: B1 VH with A52N, G55S, H58Q
VL: not shown
B25: CDRH2 library mutant AAISWNGGHS (Fab, V domains shown)
VH: B1 VH with A52S, H58S
VL: not shown
B26: CDRH3 library mutant LYYCAKTKYLPT (Fab, V domains shown)
VH: B1 VH with A49S, A52T, G55S, H58I, V93L, V99T, S100K, S103P
VL: not shown
B27: CDRH3 library mutant VYYCAKTSYLPS (Fab, V domains shown)
VH: B1 VH with A49S, A52T, G55S, H58I, V99T, S103P, T104S
VL: not shown
B28: CDRH3 library mutant VYYCAKVAYLPS (Fab, V domains shown)
VH: B1 VH with A49S, A52T, G55S, H58I, S100A, S103P, T104S
VL: not shown
B29: CDRH3 library mutant VYYCAKTRYLPT (Fab, V domains shown)
VH: B1 VH with A49S, A52T, G55S, H58I, V99T, S100R, S103P
VL: not shown
B30: CDRH2 library mutant AAIAWNGGHS (Fab, V domains shown)
VH: B1 VH with H58S
VL: not shown
B31: CDRH3 library mutant VYYCAKTRYTPT (Fab, V domains shown)
VH: B1 VH with A49S, A52T, G55S, H58I, V99T, S100R, L102T, S103P
VL: not shown
B32: CDRH2 library mutant AAIAWNGGHT (Fab, V domains shown)
VH: B1 VH with H58T
VL: not shown
B33: CDRH3 library mutant VYYCAKAKYLPT (Fab, V domains shown)
VH: B1 VH with A49S, A52T, G55S, H58I, V99A, S100K, S103P
VL: not shown
B34: CDRH3 library mutant VYYCAKTTYLPT (Fab, V domains shown)
VH: B1 VH with A49S, A52T, G55S, H58I, V99T, S100T, S103P
VL: not shown
B35: CDRH3 library mutant VYYCAKTGYLPT (Fab, V domains shown)
VH: B1 VH with A49S, A52T, G55S, H58I, V99T, S100G, S103P
VL: not shown
B36: CDRH3 library mutant LYYCAKTRYLPS (Fab, V domains shown)
VH: B1 VH with A49S, A52T, G55S, H58I, V93L, V99T, S100R, S103P, T104S
VL: not shown
B37: CDRH3 library mutant LYYCAKTKYLPS (Fab, V domains shown)
VH: B1 VH with A49S, A52T, G55S, H58I, V93L, V99T, S100K, S103P, T104S
VL: not shown
B38: CDRH3 library mutant VYYCAKVKYLPS (Fab, V domains shown)
VH: B1 VH with A49S, A52T, G55S, H58I, S100K, S103P, T104S
VL: not shown
B39: CDRH2 library mutant AAINWNGGHR (Fab, V domains shown)
VH: B1 VH with A52N, H58R
VL: not shown
B40: CDRH3 library mutant VYYCAKTKYLPS (Fab, V domains shown)
VH: B1 VH with A49S, A52T, G55S, H58I, V99T, S100K, S103P, T104S
VL: not shown
B41: CDRH3 library mutant VYYCAKSKYLPT (Fab, V domains shown)
VH: B1 VH with A49S, A52T, G55S, H58I, V99S, S100K, S103P
VL: not shown
B42: CDRH2 library mutant AAISWNGGHH (Fab, V domains shown)
VH: B1 VH with A52S
VL: not shown
B43: CDRH2 library mutant AAIAWNGGHQ (Fab, V domains shown)
VH: B1 VH with H58Q
VL: not shown
B44: CDRH3 library mutant LYYCAKVKYLPS (Fab, V domains shown)
VH: B1 VH with A49S, A52T, G55S, H58I, V93L, S100K, S103P, T104S
VL: not shown

What was measured:
biotinylated TNF alpha [1] = molecular target: T1, biotinylated TNF alpha (human (definition in paragraph 32)); the …, UniProt P01375 77-233, biotinylated (site not stated)); assay: yeast display FACS sorting on biotinylated TNF alpha, NGS enrichment, CDRH2 library
T1 construct: Used for FACS sorting of yeast libraries and immobilised on streptavidin sensors for BLI; also called TNFα; Tumor Necrosis Factor Alpha
T1 sequence (P01375 77-233 limits assumed): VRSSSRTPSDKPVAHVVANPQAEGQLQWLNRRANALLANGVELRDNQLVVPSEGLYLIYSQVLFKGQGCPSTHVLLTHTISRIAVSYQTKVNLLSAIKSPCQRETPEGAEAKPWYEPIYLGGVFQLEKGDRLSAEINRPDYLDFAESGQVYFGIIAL

biotinylated TNF alpha [2] = molecular target: T1, biotinylated TNF alpha; assay: yeast display MACS and FACS sorting on biotinylated TNF alpha, NGS enrichment, CDRH3 library
Description: The second selection phase consists of selecting the mutant by the dissociation speed thereof.
The selection of DMS libraries was done in a single step by FACS on an ARIA III device (Becton Dickinson, Franklin Lakes, United States). […] After washing the cells with PBS 0.1% BSA, they were marked by using an APC coupled antibody directed against the OK domain (Thermo Fisher Scientific, Waltham, United States; dilution 1:100) and a PE coupled streptavidin (Thermo Fisher Scientific, Waltham, United States; dilution 1:100). The selection of libraries was done by means of rectangular sorting window containing 5% of the clones of interest according to the optimal parameters described by Kowalski et al. PLoS One 10, 1-23 (2015)). The selection of de-immunization libraries was done in several steps. […] The libraries underwent different steps of sorting by FACS.

Binder	Enrichment (biotinylated TNF alpha [1])	Enrichment (biotinylated TNF alpha [2])
B1	119	
B2	192	
B3	75	
B4		110000
B5	122	
B6	193	
B7		61600
B8		448000
B9		241000
B10		1.06e+06
B11		61200
B12		251000
B13		149000
B14		122000
B15		151000
B16		99200
B17		54100
B18	197	
B19	132	
B20		81400
B21		59400
B22		51900

Binder	Enrichment (biotinylated TNF alpha [1])	Enrichment (biotinylated TNF alpha [2])
B23	382	
B24	105	
B25	82	
B26		97400
B27		371000
B28		62000
B29		707000
B30	93	
B31		80800
B32	144	
B33		163000
B34		1.29e+06
B35		100000
B36		63500
B37		65400
B38		71900
B39	417	
B40		87100
B41		105000
B42	164	
B43	109	
B44		188000
